Laboratory results: publication PMC6367351 (Nature Communications, 2019)
Where no end group is shown, it is not given here.

T1: Methanocaldococcus infernus Elp3, full length (Methanocaldococcus infernus, UniProt D5VRB9 1-534)
T1 chain: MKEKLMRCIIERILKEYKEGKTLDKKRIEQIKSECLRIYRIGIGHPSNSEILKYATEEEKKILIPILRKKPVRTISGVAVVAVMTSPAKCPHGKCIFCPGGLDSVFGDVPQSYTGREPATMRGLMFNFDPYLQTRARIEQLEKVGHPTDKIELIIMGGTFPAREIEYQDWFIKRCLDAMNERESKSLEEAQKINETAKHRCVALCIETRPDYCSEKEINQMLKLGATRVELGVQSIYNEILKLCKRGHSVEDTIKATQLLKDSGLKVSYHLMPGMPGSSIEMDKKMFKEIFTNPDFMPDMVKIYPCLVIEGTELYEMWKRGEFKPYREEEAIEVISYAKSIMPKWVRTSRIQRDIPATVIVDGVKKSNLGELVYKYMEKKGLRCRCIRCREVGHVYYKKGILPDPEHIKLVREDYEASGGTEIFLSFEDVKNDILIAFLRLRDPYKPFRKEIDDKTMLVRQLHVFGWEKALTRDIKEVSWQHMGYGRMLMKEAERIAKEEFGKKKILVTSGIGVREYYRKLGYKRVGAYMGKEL

T2: MinElp3 (Methanocaldococcus infernus, UniProt D5VRB9 1-534)
T2 sequence: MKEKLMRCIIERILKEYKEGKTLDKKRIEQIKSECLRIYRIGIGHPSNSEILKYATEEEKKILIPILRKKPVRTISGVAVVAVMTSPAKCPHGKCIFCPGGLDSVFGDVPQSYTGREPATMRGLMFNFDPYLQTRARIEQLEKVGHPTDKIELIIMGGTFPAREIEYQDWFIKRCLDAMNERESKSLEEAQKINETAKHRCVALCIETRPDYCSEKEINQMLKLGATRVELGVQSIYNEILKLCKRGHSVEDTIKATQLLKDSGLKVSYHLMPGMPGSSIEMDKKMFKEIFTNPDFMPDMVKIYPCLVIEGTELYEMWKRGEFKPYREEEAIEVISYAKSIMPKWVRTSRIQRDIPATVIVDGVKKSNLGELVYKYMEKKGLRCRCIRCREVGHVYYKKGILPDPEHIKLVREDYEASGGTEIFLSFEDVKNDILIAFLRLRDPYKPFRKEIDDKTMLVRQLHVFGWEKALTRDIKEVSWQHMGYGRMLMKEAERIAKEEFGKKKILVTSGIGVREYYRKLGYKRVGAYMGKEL


Columns and labels:
[1] = biological target: T1, Methanocaldococcus infernus Elp3, full …; assay: ITC
[2] = biological target: the molecule itself; assay: SEC; S200 gel filtration, 20 mM HEPES pH 7.5, 150 mM NaCl, 5 mM DTT; aerobic purification; masses of the monomeric forms confirmed by SDS-PAGE and light scattering (RALS and LALS)
MinElp3 = biological target: T2, MinElp3; assay: EMSA; EMSA: 25 C 30 min, 6% native PAGE at 4 C; tRNA stored in 20 mM HEPES pH 7.5, 150 mM NaCl, 5 mM DTT, 1 mM MgCl2; MST buffer not given in material; conditions: protein: recombinant; tags: GST tag cleaved (TEV); label: Cy5; hairpin

Binder | binding result [2] | also measured
YSTGGKAPRK-NH2 (not fully specified (N-terminus)) [histone H3 peptide H3(10–18) with an added N-terminal tyrosine] |  | Kd [1]: > 350 µM
MinElp3 Δ1–46 (domain or fragment, Methanocaldococcus infernus, UniProt D5VRB9 47-534, looked up, Elp3 of Methanocaldococcus infernus without residues 1-46; Truncations were cloned into pETM30 or pETM11; source: E. coli BL21 (DE3) CodonPlus-RIL, purified (GSTPrep, heparin, SEC)) SNSEILKYATEEEKKILIPILRKKPVRTISGVAVVAVMTSPAKCPHGKCIFCPGGLDSVFGDVPQSYTGREPATMRGLMFNFDPYLQTRARIEQLEKVGHPTDKIELIIMGGTFPAREIEYQDWFIKRCLDAMNERESKSLEEAQKINETAKHRCVALCIETRPDYCSEKEINQMLKLGATRVELGVQSIYNEILKLCKRGHSVEDTIKATQLLKDSGLKVSYHLMPGMPGSSIEMDKKMFKEIFTNPDFMPDMVKIYPCLVIEGTELYEMWKRGEFKPYREEEAIEVISYAKSIMPKWVRTSRIQRDIPATVIVDGVKKSNLGELVYKYMEKKGLRCRCIRCREVGHVYYKKGILPDPEHIKLVREDYEASGGTEIFLSFEDVKNDILIAFLRLRDPYKPFRKEIDDKTMLVRQLHVFGWEKALTRDIKEVSWQHMGYGRMLMKEAERIAKEEFGKKKILVTSGIGVREYYRKLGYKRVGAYMGKEL | binds | 
MinElp3 Δ1–41 (domain or fragment, Methanocaldococcus infernus, UniProt D5VRB9 42-534, looked up, Elp3 of Methanocaldococcus infernus without residues 1-41; Truncations were cloned into pETM30 or pETM11; source: E. coli BL21 (DE3) CodonPlus-RIL, purified (GSTPrep, heparin, SEC)) GIGHPSNSEILKYATEEEKKILIPILRKKPVRTISGVAVVAVMTSPAKCPHGKCIFCPGGLDSVFGDVPQSYTGREPATMRGLMFNFDPYLQTRARIEQLEKVGHPTDKIELIIMGGTFPAREIEYQDWFIKRCLDAMNERESKSLEEAQKINETAKHRCVALCIETRPDYCSEKEINQMLKLGATRVELGVQSIYNEILKLCKRGHSVEDTIKATQLLKDSGLKVSYHLMPGMPGSSIEMDKKMFKEIFTNPDFMPDMVKIYPCLVIEGTELYEMWKRGEFKPYREEEAIEVISYAKSIMPKWVRTSRIQRDIPATVIVDGVKKSNLGELVYKYMEKKGLRCRCIRCREVGHVYYKKGILPDPEHIKLVREDYEASGGTEIFLSFEDVKNDILIAFLRLRDPYKPFRKEIDDKTMLVRQLHVFGWEKALTRDIKEVSWQHMGYGRMLMKEAERIAKEEFGKKKILVTSGIGVREYYRKLGYKRVGAYMGKEL | binds | 
MinElp3 Δ1–68 (domain or fragment, Methanocaldococcus infernus, UniProt D5VRB9 69-534, looked up, Elp3 of Methanocaldococcus infernus without residues 1-68; Truncations were cloned into pETM30 or pETM11; source: E. coli BL21 (DE3) CodonPlus-RIL, purified (GSTPrep, heparin, SEC)) KKPVRTISGVAVVAVMTSPAKCPHGKCIFCPGGLDSVFGDVPQSYTGREPATMRGLMFNFDPYLQTRARIEQLEKVGHPTDKIELIIMGGTFPAREIEYQDWFIKRCLDAMNERESKSLEEAQKINETAKHRCVALCIETRPDYCSEKEINQMLKLGATRVELGVQSIYNEILKLCKRGHSVEDTIKATQLLKDSGLKVSYHLMPGMPGSSIEMDKKMFKEIFTNPDFMPDMVKIYPCLVIEGTELYEMWKRGEFKPYREEEAIEVISYAKSIMPKWVRTSRIQRDIPATVIVDGVKKSNLGELVYKYMEKKGLRCRCIRCREVGHVYYKKGILPDPEHIKLVREDYEASGGTEIFLSFEDVKNDILIAFLRLRDPYKPFRKEIDDKTMLVRQLHVFGWEKALTRDIKEVSWQHMGYGRMLMKEAERIAKEEFGKKKILVTSGIGVREYYRKLGYKRVGAYMGKEL | binds | 
GACAGACUUGAAAUCUGUU (structured_RNA) [ASL yeast tRNASerUGA] |  | binding result (MinElp3): binds
MinElp3 Δ1–54 (domain or fragment, Methanocaldococcus infernus, UniProt D5VRB9 55-534, looked up, Elp3 of Methanocaldococcus infernus without residues 1-54; Truncations were cloned into pETM30 or pETM11; source: E. coli BL21 (DE3) CodonPlus-RIL, purified (GSTPrep, heparin, SEC)) ATEEEKKILIPILRKKPVRTISGVAVVAVMTSPAKCPHGKCIFCPGGLDSVFGDVPQSYTGREPATMRGLMFNFDPYLQTRARIEQLEKVGHPTDKIELIIMGGTFPAREIEYQDWFIKRCLDAMNERESKSLEEAQKINETAKHRCVALCIETRPDYCSEKEINQMLKLGATRVELGVQSIYNEILKLCKRGHSVEDTIKATQLLKDSGLKVSYHLMPGMPGSSIEMDKKMFKEIFTNPDFMPDMVKIYPCLVIEGTELYEMWKRGEFKPYREEEAIEVISYAKSIMPKWVRTSRIQRDIPATVIVDGVKKSNLGELVYKYMEKKGLRCRCIRCREVGHVYYKKGILPDPEHIKLVREDYEASGGTEIFLSFEDVKNDILIAFLRLRDPYKPFRKEIDDKTMLVRQLHVFGWEKALTRDIKEVSWQHMGYGRMLMKEAERIAKEEFGKKKILVTSGIGVREYYRKLGYKRVGAYMGKEL | binds | 
YMPSDKTIGG-NH2 (not fully specified (N-terminus)) [alpha-tubulin peptide Tubulin(36–44) with an added N-terminal tyrosine] |  | Kd [1]: > 500 µM
